# B1: Fc-scTRAIL-FAVSGAA (Fc fusion)
# chain: AAHITGTRGRSNTLSSPNSKNEKALGRKINSWESSRSGHSFLSNLHLRNGELVIHEKGFYYIYSQTYFRFQEEIKENTKNDKQMVQYIYKYTSYPDPILLMKSARNSCWSKDAEYGLYSIYQGGIFELKENDRIFVSVTNEHLIDMDHEASFFGAFAVSGAAHITGTRGRSNTLSSPNSKNEKALGRKINSWESSRSGHSFLSNLHLRNGELVIHEKGFYYIYSQTYFRFQEEIKENTKNDKQMVQYIYKYTSYPDPILLMKSARNSCWSKDAEYGLYSIYQGGIFELKENDRIFVSVTNEHLIDMDHEASFFGAFAVSGAAHITGTRGRSNTLSSPNSKNEKALGRKINSWESSRSGHSFLSNLHLRNGELVIHEKGFYYIYSQTYFRFQEEIKENTKNDKQMVQYIYKYTSYPDPILLMKSARNSCWSKDAEYGLYSIYQGGIFELKENDRIFVSVTNEHLIDMDHEASFFGAFAVS
# Key:
# Test in all cases: ELISA; TRAILR1-Fc or TRAILR2-Fc coated (200 ng/well in 0.1 M sodium carbonate buffer, pH 9.5), samples in 3% skim milk/PBS titrated 1:3 from 150 nM, 2 h room temperature, concentrations normalised to one scTRAIL unit, detected with anti-FLAG M2-HRP
# TRAILR2-Fc [1] = molecular target: TRAILR2-Fc (UniProt O14763)
# TRAILR2-Fc [2] = molecular target: T1, TRAILR2-Fc (UniProt O14763 56-210); conditions: both partners purified
# T1 construct: TRAIL receptor 2 (TRAILR2); Probably the extracellular domain fused to an Fc
# TRAILR1-Fc = molecular target: T2, TRAILR1-Fc (UniProt O00220 24-239); conditions: both partners purified
# T2 construct: TRAIL receptor 1 (TRAILR1); Probably the extracellular domain fused to an Fc
# T2 sequence (O00220 24-239): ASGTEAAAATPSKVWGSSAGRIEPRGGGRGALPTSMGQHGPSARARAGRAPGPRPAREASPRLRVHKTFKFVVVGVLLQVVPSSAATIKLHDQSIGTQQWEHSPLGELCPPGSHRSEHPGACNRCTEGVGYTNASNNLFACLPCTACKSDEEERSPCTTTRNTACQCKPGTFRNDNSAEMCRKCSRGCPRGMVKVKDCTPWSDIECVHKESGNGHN
Molecule,EC50 (TRAILR2-Fc [1]),EC50 (TRAILR2-Fc [2]),EC50 (TRAILR1-Fc)
LC-scTRAIL (fusion of scTRAIL to hu225 IgG light chains),0.9 nM,,
HC-scTRAIL (fusion of scTRAIL to hu225 IgG heavy chains),0.8 nM,,
LC/HC-scTRAIL (fusion of scTRAIL to both hu225 IgG chains),3.4 nM,,
B1,,1.1 nM,7.3 nM

# Source: paper PMC5958125, “IgG-single-chain TRAIL fusion proteins for tumour therapy” (Scientific Reports, 2018)
